Test [1] concerns the target T1, recombinant human TfR1 (transferrin receptor protein 1) (human, UniProt P02786 89-760).
T1 construct: Recombinant protein in SPR and ELISA; they were assigned to this molecule; also called hTfR1; huTfR1
As to the kind of experiment: Table 14, Fab-ASO300 conjugate; method not named.

In test [2] the target is T2, recombinant cynomolgus monkey (Macaca fascicularis) TfR1 (cynomolgus monkey (Macaca fascicularis), UniProt Q5RDH6 87-760 (Pongo abelii entry), limits assumed).
T2 construct: Recombinant protein; also called cTfR1; cyTfR1
T2 chain: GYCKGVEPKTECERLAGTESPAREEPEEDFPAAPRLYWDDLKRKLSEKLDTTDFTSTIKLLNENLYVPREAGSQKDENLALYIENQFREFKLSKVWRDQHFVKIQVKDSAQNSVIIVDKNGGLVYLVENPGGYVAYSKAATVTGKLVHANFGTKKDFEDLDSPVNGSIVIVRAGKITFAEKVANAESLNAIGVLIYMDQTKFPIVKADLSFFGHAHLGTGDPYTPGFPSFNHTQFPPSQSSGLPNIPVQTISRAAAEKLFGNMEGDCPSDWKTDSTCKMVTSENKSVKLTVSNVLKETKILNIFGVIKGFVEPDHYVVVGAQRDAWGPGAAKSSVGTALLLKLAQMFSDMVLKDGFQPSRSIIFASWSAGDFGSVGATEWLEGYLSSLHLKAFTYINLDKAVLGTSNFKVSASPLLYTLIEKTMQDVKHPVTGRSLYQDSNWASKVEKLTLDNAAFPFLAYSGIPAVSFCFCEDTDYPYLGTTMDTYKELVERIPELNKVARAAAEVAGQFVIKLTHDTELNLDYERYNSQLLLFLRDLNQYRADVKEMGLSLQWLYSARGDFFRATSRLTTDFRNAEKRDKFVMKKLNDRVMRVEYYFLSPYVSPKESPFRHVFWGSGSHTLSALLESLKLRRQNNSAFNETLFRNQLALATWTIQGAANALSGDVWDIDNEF
As to the kind of experiment: Table 14, Fab-ASO300 conjugate; method not named.

Test [3] concerns the target T1, recombinant human TfR1 (transferrin …). As to the kind of experiment: ELISA on hTfR1, Fab conjugated to DMPK-targeting oligonucleotide, % normalized RFUs. On the technique in general: In an ELISA, binding on a coated surface is turned into a signal by an enzyme label.
The target in test [4] is T2, recombinant cynomolgus monkey (Macaca …). As to the kind of experiment: ELISA on cTfR1, Fab conjugated to DMPK-targeting oligonucleotide, % normalized RFUs.
Test [5] concerns the target T1, recombinant human TfR1 (transferrin …). The experiment in a line: ELISA, recombinant TfR1 coated, Fab-ASO300 conjugate (row 'Conjugate binding affinity ELISA').
Test [6] concerns the target T2, recombinant cynomolgus monkey (Macaca …). Described as above.
For test [7], the target named is T1, recombinant human TfR1 (transferrin …). The experiment in a line: Avg KD, antibody alone; method not stated in Table 11.
The target in test [8] is T2, recombinant cynomolgus monkey (Macaca …). The description is as above.
In test [9] the target is T1, recombinant human TfR1 (transferrin …). The experiment in a line: Carterra LSA SPR, 25 C; IgG captured, hTfR1 as analyte; 1:1 fit. The protocol:
Selected anti-TfR1 antibodies were tested for their binding affinity to human TfR1 for measurement of Ka (association rate constant). Kd (dissociation rate constant), and K_D (affinity). […] The binding experiment was performed on Carterra LSA at 25° C. An anti-mouse IgG and anti-human IgG antibody "lawn" was prepared on a HC30M chip by amine coupling. The IgGs were captured on the chip. Dilution series of hTfR1, cyTfR1, and hTfR2 were injected to the chip for binding (starting from 1000 nM, 1:3 dilution, 8 concentrations).
Binding data were referenced by subtracting the responses from a buffer analyte injection and globally fitting to a 1:1 Langmuir binding model for estimate of Ka (association rate constant), Kd (dissociation rate constant), and K_D (affinity) using the Carterra™ Kinetics software, 5-6 concentrations were used for curve fitting.

For test [10] the target is unchanged. As to the kind of experiment: ELISA on hTfR1, Fab conjugated to DMPK-targeting oligonucleotide, % normalized RFUs. This is another data set of the same source.
The target of test [11] is T2, recombinant cynomolgus monkey (Macaca …). The experiment in a line: ELISA on cTfR1, Fab conjugated to DMPK-targeting oligonucleotide, % normalized RFUs.

Where a chain is given by its changes, count along the chain named. Names and notes keep the numbering of the source.

B1: conjugate of humanized anti-TfR Fab 3M12 VH4/Vκ3 with DMPK-targeting oligonucleotide ASO300 (Fab, V domains shown)
VH: QVQLQESGPGLVKPSQTLSLTCTVTGYSITSGYYWNWIRQPPGKGLEWIGYITFDGANNYNPSLKNRVSISRDTSKNQFSLKLSSVTAEDTATYYCTRSSYDYDVLDYWGQGTTVTVSS
VL: DIQMTQSPSSLSASVGDRVTITCRASQDISNFLNWYQQKPGQPVKLLIYYTSRLHSGVPSRFSGSGSGTDFTLTISSLQPEDFATYYCQQGHTLPYTFGQGTKLEIKR
modifications: oligonucleotide ASO300 conjugated to the Fab via linker; residue and chain not stated
notes: also called 3M12 (VH4/Vk3) conjugate
Take B1: the figures for the “DMPK oligo conjugate binding” value in test [1] and in test [2] were 1.18 nM and 1.85 nM, respectively. Also, the EC50 – broadly, the concentration giving half of the maximal effect – was 1.7 nM in test [3], 2.1 nM in test [4], 1.7 nM in test [5] and 2.1 nM in test [6].

B2: conjugate of humanized anti-TfR Fab 3M12 VH3/Vκ2 with DMPK-targeting oligonucleotide ASO300 (Fab, V domains shown)
VH: B1 VH with T23S, I49M
VL: B1 VL with Y87F
modifications: oligonucleotide ASO300 conjugated to the Fab via linker; residue and chain not stated
notes: also called 3M12 (VH3/Vk2) conjugate
Take B2: the “DMPK oligo conjugate binding” value amounted to 1.14 nM in test [1] and 2.26 nM in test [2]. Further, the EC50 in test [3] was 2.2 nM; in test [4] it was 2.9 nM; in test [5], 2.2 nM; in [6], 2.9 nM.

B3: 5-H12 mouse monoclonal anti-TfR antibody (antibody, V domains shown)
VH: QIQLQQSGPELVRPGASVKISCKASGYSFTDYCINWVNQRPGQGLEWIGWIYPGSGNTRYSERFKGKATLTVDTSSNTAYMQLSSLTSEDSAVYFCAREDYYPYHGMDYWGQGTSVTVSS
VL: DIVLTQSPTSLAVSLGQRATISCRASESVDGYDNSFMHWYQQKPGQPPKLLIFRASNLESGIPARFSGSGSRTDFTLTINPVEAADVATYYCQQSSEDPWTFGGGTKLEIK
notes: Mouse monoclonal IgG
As to B3, the Kd (in general, the equilibrium constant for the complex coming apart) in test [7] stood at 202 nM; in [8] it was 12 nM; in [9] it was 208 nM. Further, the on-rate (kon) (in general, a measure of how fast the partners come together) in [9] is 66700 M⁻¹ s⁻¹.

B4: conjugate of humanized anti-TfR Fab 3A4 VH3 (N54S)/Vκ4 with DMPK-targeting oligonucleotide ASO300 (Fab, V domains shown)
VH: EVQLVQSGSELKKPGASVKVSCTASGFNIKDDYMYWVRQPPGKGLEWIGWIDPESGDTEYASKFQDRVTVTADTSTNTAYMELSSLRSEDTAVYYCTLWLRRGLDYWGQGTLVTVSS
VL: DIVMTQSPLSLPVTPGEPASISCRSSKSLLHSNGYTYLFWFQQRPGQSPRLLIYRMSNLASGVPDRFSGSGSGTDFTLKISRVEAEDVGVYYCMQHLEYPFTFGGGTKVEIKR
modifications: oligonucleotide ASO300 conjugated to the Fab via linker; residue and chain not stated
notes: also called 3A4 (VH3-N54S/Vk4) conjugate
B4: the “DMPK oligo conjugate binding” value was 2.71 nM in [1] and 4.1 nM in test [2]. In addition, the EC50 in test [10] came out at 3.6 nM; in test [11] it was 5.7 nM; in [5], 2.9 nM; in test [6], 7.8 nM.

B5: conjugate of humanized anti-TfR Fab 3A4 VH3 (N54T)/Vκ4 with DMPK-targeting oligonucleotide ASO300 (Fab, V domains shown)
VH: B4 VH with S55T
VL: B4 VL
modifications: oligonucleotide ASO300 conjugated to the Fab via linker; residue and chain not stated
notes: also called 3A4 (VH3-N54T/Vk4) conjugate
As to B5, the “DMPK oligo conjugate binding” value is 2.22 nM in [1] and 5.12 nM in test [2]. The EC50 in test [10] amounted to 3.3 nM; in test [11], 5.8 nM; in test [5], 2.8 nM; in [6], 4.7 nM.

The values are drawn from US11844843 (DYNE THERAPEUTICS, dated 2023).
